In PMC4568413, “Functional analysis of the sporulation-specific diadenylate cyclase CdaS in Bacillus thuringiensis” (Frontiers in Microbiology, 2015):

Target: the molecule itself
Experiment: SEC; Superdex 200HR 10/30; about 10 mg/mL CdaS loaded (1 mL); 25 mM Tris-HCl pH 8.0, 150 mM NaCl; 0.5 mL/min; calibrated with Bio-Rad protein standards

B1: CdaS protein from Bacillus thuringiensis BMB171 (enzyme, UniProt D5TM67 1-201, looked up)
chain: MHEWGLSEELKIQTKQMIEIAEKELSIMRNAIDKEDECILCKMEDIHHMLANVQTLAATYYIQAYLSPYTESSSFITTAIQHLSARKHGALIVVERNETLEALIQTGTTLNAHLTAPLLESIFYPGNPLHDGAVLVKNNHIVSAANILPLTKSTEVDPELGTRHRAAIGLSEKSDALILVVSEETGRTSFALNGILYTISL
notes: CdaS (cyclic di-AMP synthase, sporulation-specific; N-terminal YojJ domain and C-terminal DAC domain) of Bacillus thuringiensis BMB171; full length, the truncated constructs end at residue 201; cdaS gene 606 bp; theoretical monomer mass 23.3 kDa; Cloned in NcoI and XhoI sites of pET28b; also called B. thuringiensis CdaS; wild type CdaS; source: E. coli BL21(DE3) harboring pET28b-cdaS, purified …
  stoichiometry N: 6
